From US9872921B2, “DE-N-acetyl sialic acid antigens, antibodies thereto, and methods of use in cancer therapy” (priority 2004, dated 2018)

Experiments:
[1] = system: Jurkat cells (acute lymphoblastic T-cell leukemia); details: approximately proportional to level of antigen on cell surface
[2] = system: CHP-134 neuroblastoma; details: approximately proportional to level of antigen on cell surface
[3] = system: SK-MEL 28 melanoma cells; assay: Flow cytometry binding to cells; type: cell-based, human
Method: (§1) Cells (approximately 10^5 per well) were plated onto a flat bottom 96-well tissue culture plate (Nunc) and incubated with growth medium overnight before assay. Cells were detached from the plate by either trypsin (SK-MEL-28) or CDR (CHP-134) before being collected into a 96-round bottom plate, spun at 500 g for 5 minutes and fixed with ice-cold 1% (v/v) formaldehyde. After 20 minutes cells were pelleted by centrifugation (above) and incubated a blocking solution of 3% (v/v) goat serum with and without Triton X-100 (0.5% w/v) for 1 hour. After which the primary antibodies were added and incubated for 2 h or overnight at 4° C. The cells were washed twice by pelleting and resuspension in ice-cold PBS. Secondary antibody (Invitrogen, as described above) was incubated with the cells for at least 1 hour at 4° C. in the dark. After another series of spins and washes (3 times) binding was analyzed by a Guava EastCyte flow cytometer. Control samples were treated with an isotype matched irrelevant antibody (Southern Biotech), which were used to create baseline fluorescence, or positive control mAbs that are reactive with antigens specifically expressed by the cells (i.e. anti-GD3 for SK-MEL 28 cells and anti-NCAM in CHP-134 cells). In addition, specificity of binding was shown for the Jurkat cells by preincubating SEAM 3 with 50 μg/ml N-Pr NmB PS prior to adding the mAb to the cells.

[4] = system: Jurkat T-cell leukemia cells; assay: Flow cytometry binding to cells; type: cell-based, human
Method: as §1

[5] = system: CHP-134 neuroblastoma cells; assay: Flow cytometry binding to cells; type: cell-based, human
Method: as §1

[6] = HPTLC / Western blot reactivity with gangliosides extracted from SK-MEL-28 cells grown with N-trichloroacetyl mannosamine; type: binding, human; details: mAbs 5 μg/ml; lanes 2 and 5
Method: SK-Mel-28 cells were grown on square 245 mm×245 mm bioassay dish (Corning) until near confluent. Growth medium (RPMI supplemented with 5 mM glutamine, 1 mM sodium pyruvate, 0.1 mM non-essential amino acids, 10% fetal bovine serum, and antibiotics) was replaced with growth medium containing trichloroacetyl mannosamine (5 mM) for 24 hours, after which cells were washed three times with PBS and lysed by hypotonic shock in distilled water (1 hour at 4° C.). This was followed by 3 cycles of freeze/thawing using ethanol on dry ice/37° C. water bath. The crude membrane fraction was pelleted by centrifugation at 4500 g for 20 minutes at 4° C. The pellet was lyophilized and the lipids extracted by stepwise washing with methanol/chloroform (1:2, 1:1, 2:1 by volume) for 30 minutes (Geilen et al 1992, Arch. Biochem. Biophys. 296, 108-114). The organic phase was dried under a steady stream of oxygen-free nitrogen gas and resuspended in 200 μl of chloroform/methanol/0.02% CaCl2 (50:40:10).
Lipids in the extract and in chemically de-N-acylated GD3 were analyzed by separation on high performance thin layer chromatography (HPTLC) and Western blot. […]

[7] = HPTLC / Western blot reactivity with chemically de-N-acylated GD3; type: binding; details: mAbs 5 μg/ml
Method: De-N-acyl GM3 and GD3 (Calbiochem) were prepared by suspending 1 mg of ganglioside in 2 ml of 2.5 M tetrabutylammonium hydroxide and 3 ml of butanol then heating the mixture to >100 degrees C. for 4 hours. After cooling the mixture to ambient temperature, the pH was adjusted to about 7 by adding 2 M HCl and the butanol removed by evaporation under a stream of N2. The remaining aqueous layer was dialyzed (1K cut-off dialysis tubing) against PBS buffer and used without further modification as an antigen for ELISA.
Lipids in the extract and in chemically de-N-acylated GD3 were analyzed by separation on high performance thin layer chromatography (HPTLC) and Western blot. Samples of the ganglioside extract, the ganglioside extract that had been treated with sodium borohydride (1 mg/100 μl at ambient temperature for 2 h) to remove the trichloroacetyl protecting group, and chemically de-N-acylated GD3 were spotted onto an aluminum-backed silica gel 60 HPTLC plate (Merck) and the plate developed in chloroform/methanol/0.02% CaCl2 (50:40:10). Plates used for Western blot were dried and dipped in a solution of 0.4% polyisobutylmethacrylate in hexame/chloroform (21:8) for 1 min. The plates were blocked with 1% bovine serum albumin (BSA) in PBS buffer containing 0.1% sodium azide. MAbs (5 μg/ml) in the same blocking buffer were incubated with the plates at 4° C. overnight. […]

B1: SEAM 3: murine anti-N-Pr NmB polysaccharide monoclonal antibody (IgG2b), ATCC Deposit No. HB-12170 (antibody, V domains shown)
VH: EVKLQESGGGLVQPGDSLSLSCAASGFTFTPYYMGWVRQPPGKALEWLGYIRNKANGYTTEYSASVKGRFTISRDNSQSILYLQMNALRAEDSATYYCARYARGTVDSWGQGTTLTVS
VL: DIVMTQSPLTLSVTIGQPASISCKSSQSLLHSNGKTYLNWLLQRPGQSPKLLIYLVSKLESGVPDRFSGSGSGTDFTLKISRVEAEDLGLYYCLQIIHFPHTFGAGTKLELKRA
modifications: mouse
[1]
  cytotoxic effect: cytotoxic effect of SEAM 3 was observed
[2]
  cytotoxic effect: cytotoxic effect of SEAM 3 was observed
[3]; +Triton X-100
  binding to internal antigen by flow cytometry: larger amounts of internal SEAM 3-reactive antigen
[3]; −Triton
  binding to cell surface by flow cytometry: binds to the surface of all three cell lines
[4]; +Triton X-100
  binding to internal antigen by flow cytometry: larger amounts of internal SEAM 3-reactive antigen
[4]; −Triton
  binding to cell surface by flow cytometry: least
[5]; +Triton X-100
  binding to internal antigen by flow cytometry: larger amounts of internal SEAM 3-reactive antigen
[5]; −Triton
  binding to cell surface by flow cytometry: greatest amount of binding
[6]
  reactivity with SK-MEL-28 lipid extract treated with NaBH4 (protecting group removed): reacts with a different slower moving de-N-acetyl ganglioside derivative
[7]
  reactivity with de-N-acyl GD3 / de-N-acyl gangliosides produced by alkali treatment: does not react
